Substrate in experiment [1]: F protein of hMPV A virus (human metapneumovirus subtype A)
Briefly: cell-based or functional assay.

Substrate in experiment [2]: F protein of hMPV B virus (human metapneumovirus subtype B)
Briefly: cell-based or functional assay.

Some results are limits rather than exact numbers.

B1: M3E03 (antibody, V domains shown)
VH: QVQLVESGGGVVQPGRSLRLSCVASGFPFDSFAMHWVRQAPGKGLEWVAIVWYDGGDKFYSESVKGRFSISRDNSRNTVFLQMNSLRAEDTAVYYCARGMITFDYWGPGTLVTVSS
VL: EIVLTQSPGTLSLSPGERATLSCRASQNVDSSYLAWYQQKPGQAPRLLMYGASTRVAGIPDRFSGSGSGTDFTLTISRLEPEDFVVYYCQQYGTSPTWTFGQGTKVEIK
With B1, the PRNT IC50 in experiment [1] is 0.0199 µg/mL; in experiment [2] it was 0.0762 µg/mL.

B2: M3D12 (antibody, V domains shown)
VH: QVQLQESGPGLVKPSQTLSLTCTVSGASVSSEYYYWSWIRQPPGKGLEWIGYIYHNGDTYYNPSLKGRGIISMDTSKNQFSLKLISVTAADTAVYYCARLAVAGVTGFHYWGLGTLVTVSS
VL: EIVLTQSPDTLSLSPGERATLSCRASRSVRNYLAWYQQKPGQAPRLLIYDASNRAPGIPARFSGSGSETDFTLTISSLEPEDFAVYYCQQRSNWGLTFGGGTKVEIK
Consider B2, for which the PRNT IC50 in experiment [1] worked out at 0.0231 µg/mL; in experiment [2] it was 0.0145 µg/mL.

B3: M3C07 (antibody, V domains shown)
VH: QLQLQESGPGLVKPWETLSLTCIVSGGSISRSTHYWGWIRQSPEMGLEWIGSIYYTGNTYYNPSFKSRVTISVDTSRNQLSLRVNSVSAADTARYYCARHETYDYGVFNIWGQGAMVTVSA
VL: EIVLTQSPGTLSLSPGERAILSCRASQTVSSDYLAWYQQRPGQAPRLLIYDASSRATGVPDRFRGSGSGTDFTLTISRLEPEDFGVYYCQQYGSPYTFGQGTKLEIK
On to B3, for which the PRNT IC50 in experiment [1] and in experiment [2] was over 10 µg/mL each time.

B4: M1C11 (antibody, V domains shown)
VH: QVQLVQSGAEMKKPGSSVKVSCKTSGGSFSSYPVSWVRQAPGQGPEWMGGIIPLSGTTHYAQMFQGRVSITADDSTRTVFMELTSLRSGDTAVYYCARSGAPTYYYDSSGFHGGAFHFWGQGTVVTVSS
VL: DIVMTQSPDSLAVSLGERATINCKSSQSVLYSSNSKSYLAWYQQKPGQPPKLLIYWASSRESGVPDRFSGSGSGTDFTLTISSLQAEDVAVYYCQQFYTSPHTFGQGTKLEIKR
With B4, the PRNT IC50 in experiment [1] stood at 5.92 µg/mL; in experiment [2], 0.444 µg/mL.

B5: M2D07 (antibody, V domains shown)
VH: QVQLVESGGAVVQPGRSLRLSCAASGFTFTSFSMHWVRQAPGRGLEWVAVISHDGIIKYYADSVKGRFTISRDNSKNTVFLQMNSLRPEDTAVFYCARDFPGSRGFFRYYFDHWGQGTLVTVSS
VL: DIQMTQSPSSLSASVGGSVTITCRVDQSISNDLHWYQQKPGKAPKLLISSASSLQSGVPSRFSGSGSGTDFTLTITSLQPEDFATYYCQQSYTTPPLFGQGTTLEIK
B5: the results for the PRNT IC50 in experiment [1] and in experiment [2] were 1.07 µg/mL and 2.5 µg/mL, respectively.

B6: M6E10 (antibody, V domains shown)
VH: QVQLVQSGAEVKKPGSSVKVSCNASGGIFDTNVINWVRQAPGQGLEWMGGIIPPFGTALYAHQFQGRLTLTVDESTNTAYMDLSSLRSDDTAVYFCARDRTVIKYADGMDVWGQGTTVTVSS
VL: DIQMTQSPSSLSASVGDKVAITCRASQTISPYLNWYQQKPGKAPNLLIYGTNKLQSGVPLRFSGSGSGTDFTLTINGLQPEDFATYFCQQSHTTPLTFGGGTKVEIKR
On to B6, for which the PRNT IC50 in experiment [1] was 0.0237 µg/mL; in experiment [2], 0.0104 µg/mL.

B7: M2E06 (antibody, V domains shown)
VH: EVQLVESGGDLVQPGGSLRLSCEASAFTFSDYAMTWVRQAPGKGLEWVSSINTSGGRTYYADSVKGRFTISRDNSKNTLYLQMKSLRAEDTAVYFCARFFYVMDVWGQGTTVTVSS
VL: AIQMTQSPSSLSASVGDRVTITCRASQGVRNDLGWYQQKPGKAPKLLINAASGLQSGVPSRFSGSGSDTDFTLTISSLQPEDFATYYCLQVYSYPFTFGPGTKVDIK
As to B7, the PRNT IC50 in experiment [1] was 0.105 µg/mL; in experiment [2] it was 0.139 µg/mL.

B8: M4A08 (antibody, V domains shown)
VH: EVQLVESGGALVRPGGSLRVSCEASGFNFRTHWMHWVRQAPGKGLVWVARTNGDGSVTNYADSVKGRFTFFRDNAKNTLFLQMTSLRVDDTAVYYCARERLDYSSTRGHFPGDFDSWGQGTLVTVSS
VL: DIVMTQSPDSLAVSLGERATINCKSSESVLYTSNSKNYLAWYQQKPGHPPKVLIYWASTRESGVPDRFSGSGSGTDFSLSISSLQAEDVAVYYCQQYFTIPRTFGQGTKVEIK
As for B8, the PRNT IC50 in experiment [1] amounted to 0.136 µg/mL; in experiment [2] it was 0.344 µg/mL.

B9: M1A12 (antibody, V domains shown)
VH: QVQLVQSGTEVKKPGSSVKVSCKDPGDIMSSHSIHWVRQAPGQGPEWMGRIIPLFGMKSYAPNFQGRVSISVDTSTNTAYLELSGLKSDDTAVYFCAREENLSWLDYWGQGTQVIVSS
VL: EIVLTQSPATLSLSPGDRATLSCRASLRLSTNIAWYQQKPGQAPRLVIYDASKRATGIPARFSGSGSGTDFTLTISSLEPEDFAVYYCHQHSNWYTFGQGTKLEIK
Regarding B9, the PRNT IC50 in experiment [1] amounted to 1.51 µg/mL; in experiment [2], 5 µg/mL.

B10: M3D06 (antibody, V domains shown)
VH: EVQLVESGGGLVQPGGSLRLSCAASGFPFNFYWMHWVRQAPREGLVWVSRINNDGSSPNYADSVWGRFTISRDNAKNTLYLQMHSLRAEDTAVYYCARAARFGDYVDQWGQGTLVTVSS
VL: AIQLTQSPSSLSASMGDRVTITCRASQGISSAFAWYQQKPGKAPKLLIYDASTLESGVPSRFSGSGSGTDFTLTISSLQPEDFATYYCQQFNSYPLTFGGGTKVEIK
As for B10, the PRNT IC50 in experiment [1] and in experiment [2] was over 10 µg/mL throughout.

B11: M2D10 (antibody, V domains shown)
VH: QVQLVQSGAEVKKPGASVRISCKPSGRAFLTYDINWVRQAPGQGLEWMAGMNPGSGNAAYAPKFQGRLTMIRNTSISTDYLELSSLTSEDTAVYYCARGEVSMRWRWLDPWGQGSLVTVTS
VL: DIQMTQSPSSLSASVGDRVTITCRASQTISNFLNWYQQKPGRAPKVLIYAALNLQSGVPSRFRGSGSGTDFTLTINNLQPEDFAIYYCQQSYITPWTFGQGTKVEIK
Take B11: the PRNT IC50 in experiment [1] amounted to 0.759 µg/mL; in experiment [2], 1.34 µg/mL.

B12: M4B01 (antibody, V domains shown)
VH: EVQLLESGGGLVQPGGSLRLSCAASGFNFNTYAMSWVRQAPGKGLKWISTISGSGGVKYYADSVKGRFTISRDNSGSILYLQMNRLRADDTAVYYCAKSQNPQLVFFDSFDMWGQGSMVTVSS
VL: QSVLTQAPSASAAPGQKVTISCSGSTSNIGNSYVSWYQQVPGTAPKLLIYEDNQRPSGIPDRFSGSKSGTSATLGITGLQTGDEADYYCGTWDNSLTEVVFGGGTKLTVL
For the molecule B12, the PRNT IC50 in experiment [1] stood at 0.0371 µg/mL; in experiment [2], 0.0628 µg/mL.

B13: M3D09 (antibody, V domains shown)
VH: QVQLVESGGGVVQSGKSLGLSCIASGFIFSNYALHWVRQAPGKGLEWLSVISYDGTNKYYANSVRGRFTVSRDNSKNTLFLHMNSLGVDDTAMYYCARDPERLADLGRMDFWGRGTLVAVLS
VL: DIVMTQSPDSLAVSLGERATINCKSSQSVLFSPNNKNYLAWYQQKPGQPPKLLIYWASTREYGVPERFSGSGSGTDFTLTISSLQAEDVAVYYCQQYNSNPYTFGQGTKLEIR
As for B13, the PRNT IC50 in experiment [1] was determined as 2 µg/mL; in experiment [2], 0.28 µg/mL.

B14: M4B04 (antibody, V domains shown)
VH: QVQLVESGGGVVQPGKSLRLSCAASGFTFRSYTMFWVRQAPGKGLEWVAIILHDGTNRYYTDSVKGRFTISRDNTKNTVYLQMNSLRPEDTAMYYCARESLEWMLDWGQGTLVTVSS
VL: EIVMTQSPATLSVSPGERATLSCRASQSLSGNLAWFQQKPGQAPRLLIYGTSTRATGIPARFSGSGSGTEFTLTISSLQSEDFAVYYCQQYNNWPPVFTFGPGTKVDIK
As for B14, the PRNT IC50 in experiment [1] came out at 4.59 µg/mL; in experiment [2] it was 1.97 µg/mL.

B15: M4C02 (antibody, V domains shown)
VH: QLQLQESGPRLVKPSETLSLTCSVSGGSISSSSLYWGWIRQSPGKGLEWIGTIYYGGSSDYNPSLKSRLTMSVDTSKNHFSLRLSSVTAADTAVYYCARVGSPVTTTVWFDPWGQGTLVTVSS
VL: DIQMTQSPSSLAASIGDRVTITCRASQTISTYLNWYQQKPGKAPKLLIYAASTLQSGVPSRFSGSGSGTDFTLTISSLQPEDFATYYCQQTYSSLALTFGGGTKVEIR
As for B15, the PRNT IC50 in experiment [1] stood at 0.577 µg/mL; in experiment [2] it was 0.173 µg/mL.

B16: M4A12 (antibody, V domains shown)
VH: QLQESGSGPGLVKPSETLSLICNASGDSVTRNAYYWGWLRQPPGKGLEWIGIMYYSGSTFYNPSLKSRLTISVDTSKNQFSLKLRSVTAADTATYYCGEATLTTYDAFDVWGHGTMVTVSS
VL: QSVLTQPPSVSAAPGQRVTISCSGGNSNIGKNYVSWYQQVPGTAPKLLIYENNKRPSGIPDRFSGSKSGTSATLGITGLQTGDEADYYCGAWDSSLNGVLFGGGTRLTVL
For B16, the PRNT IC50 in experiment [1] is over 10 µg/mL; in experiment [2] it was 0.0744 µg/mL.

B17: M2A09 (antibody, V domains shown)
VH: QVQLVQSGAGVRKPGSSVKVSCKASGGTFSNYIISWVRQAPGQGLEYIGRIIPIVGMEKYEEKFQGRVKITADESTSTVSMELTSLKSEDTATYYCATEGLESGYPPYLEHWGRGTLVIVSS
VL: EIVLTQSPGTLSLSPGERATLSCRTSQTVGAHLAWYQQKPGQSPRLLIYGASSRATGIPDRFSGSGSGTVFTLTINRLEPEDLAVYYCQQYGASPPTFGQGTKVEIK
With B17, the PRNT IC50 in experiment [1] came out at 0.0133 µg/mL; in experiment [2], 0.0456 µg/mL.

B18: M2B07 (antibody, V domains shown)
VH: EVQLVESGGGLVRPGGSLRLSCAASGFTFNNYWMHWVRQAPGKGLVWVSHVKSDGSITNYADSVKGRFTISRDNAKNTLYLEMSSLRVEDTAVYYCARESRPYDPLTGSHPDAFDIWGQGTMVTVSS
VL: DIVMTQSPDSLAVSLGERATINCKSSESIFYYSNSKSYLAWYRQKPGQPPKLLIYWASTRESGVPDRFSGSGSGTDFTLTISSLQPEDVAVYYCQQYYTNPRTFGQGTRLEIK
B18: the PRNT IC50 was determined as 0.625 µg/mL in experiment [1] and 0.426 µg/mL in experiment [2].

B19: M1A01 (antibody, V domains shown)
VH: QVQLVQSGAEVKKPGSSVKVSCWASGGTFDNAINWLRQAPGQGPEWMGRIIPLVDIVNRAPKFQDRVSFTADKSTNTVYMVLNSLTSDDTAVYYCASAFQDGWFDPWGQGTLVTVSS
VL: EIVLTQSPATLSLSPGERATLSCRASQSLSRYLAWYQQKPGQAPRLLIYDASNRATGVPARFSGSGSGTDFTLTISSLEPEDFAVYYCHQRHNWITFGQGTRLEIK
B19: the PRNT IC50 in experiment [1] was 3.41 µg/mL; in experiment [2] it was 4 µg/mL.

The values above are taken from patent US20240327502A1.
